The source of these data is US20250171562A1.

The chains are these.
B1: CIgE4A1A1(GS3) (Fc fusion)
chain 1: GPPCPPCPAPEFLGGPSVFLFPPKPKDTLMISRTPEVTCVVVDVSQEDPEVQFNWYVDGVEVHNAKTKPREEQFNSTYRVVSVLTVLHQDWLNGKEYKCKVSNKGLPSSIEKTISKAKGQPREPQVYTLPPCQEEMTKNQVSLWCLVKGFYPSDIAVEWESNGQPENNYKTTPPVLDSDGSFFLYSRLTVDKSRWQEGNVFSCSVMHEALHNHYTQKSLSLSLGKGGGGSGGGGSGGGGSEVQLLESGGGLVQPGGSLRLSCAASGFTFGNYDMAWVRQAPGKRPEWVSSIDTGGDITHYADSVKGRFTISRDNAKNTLYLQMNSLRPEDTAVYWCATDEEYALGPNEFDYYGQGTLVTVSS
chain 2: GPPCPPCPAPEFLGGPSVFLFPPKPKDTLMISRTPEVTCVVVDVSQEDPEVQFNWYVDGVEVHNAKTKPREEQFNSTYRVVSVLTVLHQDWLNGKEYKCKVSNKGLPSSIEKTISKAKGQPREPQVCTLPPSQEEMTKNQVSLSCAVKGFYPSDIAVEWESNGQPENNYKTTPPVLDSDGSFFLVSRLTVDKSRWQEGNVFSCSVMHEALHNHYTQKSLSLSLGKGGGGSGGGGSGGGGSEVQLLESGGGLVQPGGSLRLSCAASGFTFGNYDMAWVRQAPGKRPEWVSSIDTGGDITHYADSVKGRFTISRDNAKNTLYLQMNSLRPEDTAVYWCATDEEYALGPNEFDYYGQGTLVTVSS
B2: CIgG4B3A1(G4S)3 (Fc fusion)
chain 1: GPPCPPCPAPEFLGGPSVFLFPPKPKDTLMISRTPEVTCVVVDVSQEDPEVQFNWYVDGVEVHNAKTKPREEQFNSTYRVVSVLTVLHQDWLNGKEYKCKVSNKGLPSSIEKTISKAKGQPREPQVYTLPPCQEEMTKNQVSLWCLVKGFYPSDIAVEWESNGQPENNYKTTPPVLDSDGSFFLYSRLTVDKSRWQEGNVFSCSVMHEALHNHYTQKSLSLSLGKGGGGSGGGGSGGGGSDVQLQESGGGLVQAGGSLRLSCAASGFIFRLAGMSWVRQAPGKGFEWVSGITMDGSTTNYADSVKGRFTISRDNSKNRLYLQMNSLKPEDTAVYYCARGAKGGYNDPRGQGTQVTVS
chain 2: GPPCPPCPAPEFLGGPSVFLFPPKPKDTLMISRTPEVTCVVVDVSQEDPEVQFNWYVDGVEVHNAKTKPREEQFNSTYRVVSVLTVLHQDWLNGKEYKCKVSNKGLPSSIEKTISKAKGQPREPQVCTLPPSQEEMTKNQVSLSCAVKGFYPSDIAVEWESNGQPENNYKTTPPVLDSDGSFFLVSRLTVDKSRWQEGNVFSCSVMHEALHNHYTQKSLSLSLGKGGGGSGGGGSGGGGSEVQLLESGGGLVQPGGSLRLSCAASGFTFGNYDMAWVRQAPGKRPEWVSSIDTGGDITHYADSVKGRFTISRDNAKNTLYLQMNSLRPEDTAVYWCATDEEYALGPNEFDYYGQGTLVTVSS
B3: CIgE4A1A1(GS)2 (Fc fusion)
chain 1: GPPCPPCPAPEFLGGPSVFLFPPKPKDTLMISRTPEVTCVVVDVSQEDPEVQFNWYVDGVEVHNAKTKPREEQFNSTYRVVSVLTVLHQDWLNGKEYKCKVSNKGLPSSIEKTISKAKGQPREPQVYTLPPCQEEMTKNQVSLWCLVKGFYPSDIAVEWESNGQPENNYKTTPPVLDSDGSFFLYSRLTVDKSRWQEGNVFSCSVMHEALHNHYTQKSLSLSLGKGGGGSGGGGSEVQLLESGGGLVQPGGSLRLSCAASGFTFGNYDMAWVRQAPGKRPEWVSSIDTGGDITHYADSVKGRFTISRDNAKNTLYLQMNSLRPEDTAVYWCATDEEYALGPNEFDYYGQGTLVTVSS
chain 2: GPPCPPCPAPEFLGGPSVFLFPPKPKDTLMISRTPEVTCVVVDVSQEDPEVQFNWYVDGVEVHNAKTKPREEQFNSTYRVVSVLTVLHQDWLNGKEYKCKVSNKGLPSSIEKTISKAKGQPREPQVCTLPPSQEEMTKNQVSLSCAVKGFYPSDIAVEWESNGQPENNYKTTPPVLDSDGSFFLVSRLTVDKSRWQEGNVFSCSVMHEALHNHYTQKSLSLSLGKGGGGSGGGGSEVQLLESGGGLVQPGGSLRLSCAASGFTFGNYDMAWVRQAPGKRPEWVSSIDTGGDITHYADSVKGRFTISRDNAKNTLYLQMNSLRPEDTAVYWCATDEEYALGPNEFDYYGQGTLVTVSS
B4: CIgG4B3A1(G4S)2 (Fc fusion)
chain 1: GPPCPPCPAPEFLGGPSVFLFPPKPKDTLMISRTPEVTCVVVDVSQEDPEVQFNWYVDGVEVHNAKTKPREEQFNSTYRVVSVLTVLHQDWLNGKEYKCKVSNKGLPSSIEKTISKAKGQPREPQVYTLPPCQEEMTKNQVSLWCLVKGFYPSDIAVEWESNGQPENNYKTTPPVLDSDGSFFLYSRLTVDKSRWQEGNVFSCSVMHEALHNHYTQKSLSLSLGKGGGGSGGGGSDVQLQESGGGLVQAGGSLRLSCAASGFIFRLAGMSWVRQAPGKGFEWVSGITMDGSTTNYADSVKGRFTISRDNSKNRLYLQMNSLKPEDTAVYYCARGAKGGYNDPRGQGTQVTVS
chain 2: GPPCPPCPAPEFLGGPSVFLFPPKPKDTLMISRTPEVTCVVVDVSQEDPEVQFNWYVDGVEVHNAKTKPREEQFNSTYRVVSVLTVLHQDWLNGKEYKCKVSNKGLPSSIEKTISKAKGQPREPQVCTLPPSQEEMTKNQVSLSCAVKGFYPSDIAVEWESNGQPENNYKTTPPVLDSDGSFFLVSRLTVDKSRWQEGNVFSCSVMHEALHNHYTQKSLSLSLGKGGGGSGGGGSEVQLLESGGGLVQPGGSLRLSCAASGFTFGNYDMAWVRQAPGKRPEWVSSIDTGGDITHYADSVKGRFTISRDNAKNTLYLQMNSLRPEDTAVYWCATDEEYALGPNEFDYYGQGTLVTVSS
B5: NIgG4B3A1(RS) (Fc fusion)
chain 1: DVQLQESGGGLVQAGGSLRLSCAASGFIFRLAGMSWVRQAPGKGFEWVSGITMDGSTTNYADSVKGRFTISRDNSKNRLYLQMNSLKPEDTAVYYCARGAKGGYNDPRGQGTQVTVSRSGPPCPPCPAPEFLGGPSVFLFPPKPKDTLMISRTPEVTCVVVDVSQEDPEVQFNWYVDGVEVHNAKTKPREEQFNSTYRVVSVLTVLHQDWLNGKEYKCKVSNKGLPSSIEKTISKAKGQPREPQVYTLPPCQEEMTKNQVSLWCLVKGFYPSDIAVEWESNGQPENNYKTTPPVLDSDGSFFLYSRLTVDKSRWQEGNVFSCSVMHEALHNHYTQKSLSLSLGK
chain 2: EVQLLESGGGLVQPGGSLRLSCAASGFTFGNYDMAWVRQAPGKRPEWVSSIDTGGDITHYADSVKGRFTISRDNAKNTLYLQMNSLRPEDTAVYWCATDEEYALGPNEFDYYGQGTLVTVSSRSGPPCPPCPAPEFLGGPSVFLFPPKPKDTLMISRTPEVTCVVVDVSQEDPEVQFNWYVDGVEVHNAKTKPREEQFNSTYRVVSVLTVLHQDWLNGKEYKCKVSNKGLPSSIEKTISKAKGQPREPQVCTLPPSQEEMTKNQVSLSCAVKGFYPSDIAVEWESNGQPENNYKTTPPVLDSDGSFFLVSRLTVDKSRWQEGNVFSCSVMHEALHNHYTQKSLSLSLGK
B6: CIgG4B3A1(G4S)1 (Fc fusion)
chain 1: GPPCPPCPAPEFLGGPSVFLFPPKPKDTLMISRTPEVTCVVVDVSQEDPEVQFNWYVDGVEVHNAKTKPREEQFNSTYRVVSVLTVLHQDWLNGKEYKCKVSNKGLPSSIEKTISKAKGQPREPQVYTLPPCQEEMTKNQVSLWCLVKGFYPSDIAVEWESNGQPENNYKTTPPVLDSDGSFFLYSRLTVDKSRWQEGNVFSCSVMHEALHNHYTQKSLSLSLGKGGGGSDVQLQESGGGLVQAGGSLRLSCAASGFIFRLAGMSWVRQAPGKGFEWVSGITMDGSTTNYADSVKGRFTISRDNSKNRLYLQMNSLKPEDTAVYYCARGAKGGYNDPRGQGTQVTVS
chain 2: GPPCPPCPAPEFLGGPSVFLFPPKPKDTLMISRTPEVTCVVVDVSQEDPEVQFNWYVDGVEVHNAKTKPREEQFNSTYRVVSVLTVLHQDWLNGKEYKCKVSNKGLPSSIEKTISKAKGQPREPQVCTLPPSQEEMTKNQVSLSCAVKGFYPSDIAVEWESNGQPENNYKTTPPVLDSDGSFFLVSRLTVDKSRWQEGNVFSCSVMHEALHNHYTQKSLSLSLGKGGGGSEVQLLESGGGLVQPGGSLRLSCAASGFTFGNYDMAWVRQAPGKRPEWVSSIDTGGDITHYADSVKGRFTISRDNAKNTLYLQMNSLRPEDTAVYWCATDEEYALGPNEFDYYGQGTLVTVSS
B7: NIgG4B3A1(G4S)1 (Fc fusion)
chain 1: DVQLQESGGGLVQAGGSLRLSCAASGFIFRLAGMSWVRQAPGKGFEWVSGITMDGSTTNYADSVKGRFTISRDNSKNRLYLQMNSLKPEDTAVYYCARGAKGGYNDPRGQGTQVTVSGGGGSGPPCPPCPAPEFLGGPSVFLFPPKPKDTLMISRTPEVTCVVVDVSQEDPEVQFNWYVDGVEVHNAKTKPREEQFNSTYRVVSVLTVLHQDWLNGKEYKCKVSNKGLPSSIEKTISKAKGQPREPQVYTLPPCQEEMTKNQVSLWCLVKGFYPSDIAVEWESNGQPENNYKTTPPVLDSDGSFFLYSRLTVDKSRWQEGNVFSCSVMHEALHNHYTQKSLSLSLGK
chain 2: EVQLLESGGGLVQPGGSLRLSCAASGFTFGNYDMAWVRQAPGKRPEWVSSIDTGGDITHYADSVKGRFTISRDNAKNTLYLQMNSLRPEDTAVYWCATDEEYALGPNEFDYYGQGTLVTVSSGGGGSGPPCPPCPAPEFLGGPSVFLFPPKPKDTLMISRTPEVTCVVVDVSQEDPEVQFNWYVDGVEVHNAKTKPREEQFNSTYRVVSVLTVLHQDWLNGKEYKCKVSNKGLPSSIEKTISKAKGQPREPQVCTLPPSQEEMTKNQVSLSCAVKGFYPSDIAVEWESNGQPENNYKTTPPVLDSDGSFFLVSRLTVDKSRWQEGNVFSCSVMHEALHNHYTQKSLSLSLGK
B8: CIgG4B3A1(RS) (Fc fusion)
chain 1: GPPCPPCPAPEFLGGPSVFLFPPKPKDTLMISRTPEVTCVVVDVSQEDPEVQFNWYVDGVEVHNAKTKPREEQFNSTYRVVSVLTVLHQDWLNGKEYKCKVSNKGLPSSIEKTISKAKGQPREPQVYTLPPCQEEMTKNQVSLWCLVKGFYPSDIAVEWESNGQPENNYKTTPPVLDSDGSFFLYSRLTVDKSRWQEGNVFSCSVMHEALHNHYTQKSLSLSLGKRSDVQLQESGGGLVQAGGSLRLSCAASGFIFRLAGMSWVRQAPGKGFEWVSGITMDGSTTNYADSVKGRFTISRDNSKNRLYLQMNSLKPEDTAVYYCARGAKGGYNDPRGQGTQVTVS
chain 2: GPPCPPCPAPEFLGGPSVFLFPPKPKDTLMISRTPEVTCVVVDVSQEDPEVQFNWYVDGVEVHNAKTKPREEQFNSTYRVVSVLTVLHQDWLNGKEYKCKVSNKGLPSSIEKTISKAKGQPREPQVCTLPPSQEEMTKNQVSLSCAVKGFYPSDIAVEWESNGQPENNYKTTPPVLDSDGSFFLVSRLTVDKSRWQEGNVFSCSVMHEALHNHYTQKSLSLSLGKRSEVQLLESGGGLVQPGGSLRLSCAASGFTFGNYDMAWVRQAPGKRPEWVSSIDTGGDITHYADSVKGRFTISRDNAKNTLYLQMNSLRPEDTAVYWCATDEEYALGPNEFDYYGQGTLVTVSS

The target in the test is mixture of three Der p 2 specific recombinant human IgE clones H10, H12, P4E (human) (UniProt P01854). The test is described as follows: RBL-SX38 IgE displacement, FACS.
Sequence of mixture of three Der p 2 specific recombinant human IgE clones H10, H12, P4E (human) (P01854 other isoform, or with tags, fused parts or gaps): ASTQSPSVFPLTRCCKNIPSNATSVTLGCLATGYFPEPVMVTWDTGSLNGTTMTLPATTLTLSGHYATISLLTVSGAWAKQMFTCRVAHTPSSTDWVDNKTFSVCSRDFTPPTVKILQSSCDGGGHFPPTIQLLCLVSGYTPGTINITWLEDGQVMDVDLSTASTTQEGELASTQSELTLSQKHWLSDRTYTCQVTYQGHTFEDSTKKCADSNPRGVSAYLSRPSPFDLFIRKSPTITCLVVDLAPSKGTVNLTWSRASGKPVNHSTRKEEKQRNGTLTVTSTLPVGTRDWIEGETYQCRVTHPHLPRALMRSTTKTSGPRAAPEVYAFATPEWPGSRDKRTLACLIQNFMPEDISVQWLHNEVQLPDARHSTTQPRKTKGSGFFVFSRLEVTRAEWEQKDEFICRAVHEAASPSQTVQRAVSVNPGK
With B1, the Max effect/effect 1 µM amounted to 10%.
On to B2, for which the Max effect/effect 1 µM stood at 76%.
To B3 belongs 19%; to B4, 28%.
Regarding B5, the Max effect/effect 1 µM came to 94%.
To B6 belongs 12%.
To B7 belongs 94%; to B8, 1%.
